According to US20160024155A1 (published 2016):
Where two headings read alike, the source gives them in different places.

Experiments:
[1] = molecular target: T1, A/South Carolina/1/1918 (H1N1) hemagglutinin ectodomain (Influenza A virus A/South …)
[2] = molecular target: T1, A/South Carolina/1/1918 (H1N1) …; remark: listed apart in the source
[3] = molecular target: T1, A/South Carolina/1/1918 (H1N1) …; remark: listed apart in the source
[4] = molecular target: T1, A/South Carolina/1/1918 (H1N1) …; remark: listed apart in the source

Row | Binder | fold increase in binding affinity relative to HB36 [1] [fold] | Kd [2] [nM] | Kd [3] [nM] | fold increase in binding affinity relative to original design (HB36) [3] [fold] | Kd [4] [nM]
1 | HB36.1 (Asp47Ser) (designed binder) MSNAMDGQQLNRLLLEWIGAWDPFGLGKDAYDVEAEAVLQAVYETESAFDLAMRIMWIYAFAFNRPIPFPHAQKLARRLLELKQAASSPLPLE | ~40 | 5 | 2 to 5 | > 10 | –
2 | HB80.1 (Met26Thr, Asn36Lys) (designed binder) MASTRGSGRPWDFSENLAFELALAFTNKDTPDRWAKVAQYVSGRTPEEVKKHYEILVEDIKYIESGKVPFPNYRTTGGNMKTDEKRFRNLKIRLE | – | 7.5 | – | – | 7.5
